This note sets out measurements from patent publication US5731326A, “PDGF antagonists II” (ZymoGenetics, Inc., priority 1996, dated 1998).

Assay [1] relates to baboon smooth muscle cells. Briefly: Inhibition of PDGF-BB mitogenic activity on baboon smooth muscle cells ([3H] thymidine incorporation). It counts as cell-based. To be noted: vehicle 74. How it is done: NNC92-0270 was analyzed for the ability to inhibit the mitogenic activity of PDGF on baboon smooth muscle cells. All mitogenesis assays performed on baboon vascular smooth muscle cells (BVSMCs) were done on primary cultures of cells between passages 13 and 20 in culture. The initial cultures were established from outgrowth of aortic tissue explants. Baboon smooth muscle cells were plated at approximately 20,000 cells per well, in DMEM supplemented with 10% fetal calf serum, into 24-well culture dishes. One day prior to use the culture media was removed, and 1 ml of Mito Media (Table 5) was added to each well to allow the cells to become quiescent. At the time of the experiment the cells were stimulated with PDGF-BB. […] 20× stock solutions were made for each of the PDGF concentrations by dilution in 10 mM acetic acid containing 0.25% albumin, and 50 ul PDGF or dilution vehicle alone was added to the culture wells.
To analyze the activity of NNC92-0270 to neutralize PDGF-BB mitogenic activity, 1 ng/ml of PDGF was added to wells along with dilutions of NNC92-0270. The cells were incubated with the test samples for approximately 20 hours at 37 ° C. Fifty microliters of a 20× stock solution of [3H] Thymidine was then added to each well to give a final concentration of 1 μCi/ml. The cells were incubated for 4 hours at 37 ° C., washed with PBS, then harvested with trypsin and counted for [^3 H] thymidine incorporation in a Wallac (Turku, Finland) Betaplate™ liquid scintillation counter.
NNC92-0270 was incubated with 1 ng/ml of PDGF-BB in the presence of 0.5 U/ml of unfractionated heparin. The cells were pulse labeled with [^3 H] thymidine as described above and the level of [^3 H] thymidine determined.
Background: Incorporation of labelled thymidine or its analogues reports DNA synthesis.

The test system of assay [2] is baboon smooth muscle cells. Briefly: Wash-out study of PDGF-BB mitogenic activity on baboon smooth muscle cells. As to conditions: T = -24 hrs 0.5% DMSO; T = 0 hrs PDGF-BB (1 ng/ml); mean +/- SD; vehicle only 164 +/- 10. It counts as cell-based. How it is done: NNC92-0270 was analyzed for prolonged inhibitory effect on PDGF-BB mitogenic activity on baboon smooth muscle cells in a wash-out experiment. Baboon SMCs were plated at 20,000 cells per well in a 24-well culture dish and grown for 2 days. The culture media was removed and replaced with Mito Media (Table 5) to allow the cells to become quiescent. The experiment was set up such that cells were treated with NNC92-0270 or vehicle control (0.5% DMSO) for either 24 hours prior to the addition of PDGF-BB, or sequentially with the addition of PDGF-BB. Those cells initially treated with NNC92-0270 or control vehicle for 24 hours, were washed with Mito Media to remove the test compound and then incubated with PDGF-BB (1 ng/ml) for an additional 24 hours. A second set of cells was treated with NNC92-0270 or vehicle control simultaneously with PDGF-BB for 24 hours. The cells were pulse labeled for 4 hours with [^3 H] thymidine (1 μCi/ml final) harvested with trypsin and counted in a Wallac Betaplate counter to determine CPM for [^3 H] thymidine incorporation.
Acetic acid (10 mM) was used as the PDGF-BB vehicle control and 0.5% DMSO was used as the test compound control.

B1: PDGF-BB: platelet derived growth factor BB, mitogenic stimulus used for the standard curve (protein, UniProt P01127 82-190, looked up)
Platelet-derived growth …: SLGSLTIAEPAMIAECKTRTEVFEISRRLIDRTNANFLVWPPCVEVQRCSGCCNNRNVQCRPTQVQLRPVQVRKIEIVRKKPIFKKATVTLEDHLACKCETVAAARPVT
modifications: homodimer
notes: platelet derived growth factor BB, mitogenic stimulus used for the standard curve
For B1, the “3H Thymidine (CPM Incorporated), PDGF-BB standard curve” value was found to be 120 CPM in assay [1] (PDGF-BB 0.062 ng/ml); 226 CPM in assay [1] (PDGF-BB 0.125 ng/ml); 392 CPM in assay [1] (PDGF-BB 0.25 ng/ml); 959 CPM in assay [1] (PDGF-BB 0.5 ng/ml); 1701 CPM in assay [1] (PDGF-BB 1 ng/ml). Besides, in assay [2], the “[3H] Thymidine Incorporation (cpm)” value was 6370 +/- 1303 cpm.
